For this assay, the target named is T1, TweakR on cells (TweakR-expressing cells, TweakR transfectant cell line, A375 melanoma cells, tumor tissue) (human) (UniProt Q9NP84).
T1 sequence: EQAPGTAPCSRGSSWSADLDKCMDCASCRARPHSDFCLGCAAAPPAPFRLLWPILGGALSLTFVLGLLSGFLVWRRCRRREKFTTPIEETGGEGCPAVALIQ
The assay is described as follows: cell-based or functional assay.

On to anti-TweakR antibody ITEM2, for which the agonist activity (IL-8 release assay) amounted to 28%.

The record behind these values is US20090074762A1.
